Measured values taken from patent publication US20150231236A1, “METHODS FOR TREATING PATIENTS WITH HYPERCHOLESTEROLEMIA THAT IS NOT ADEQUATELY CONTROLLED BY MODERATE-DOSE STATIN THERAPY” (Regeneron Pharmaceuticals, Inc., priority 2014, published 2015).

Key:
[1] = test system: patients with hypercholesterolemia at high CV risk not adequately controlled with rosuvastatin (10 mg or 20 mg); conditions: in vivo
[2] = test system: patients with hypercholesterolemia at high CV risk not adequately controlled with atorvastatin (20 mg or 40 mg); assay: Example 2: anti-mAb316P anti-drug antibody (ADA) status; assay type: in vivo, human
[3] = test system: patients with hypercholesterolemia at high CV risk not adequately controlled with atorvastatin (20 mg or 40 mg); assay: Example 2: safety, treatment-emergent adverse events in pooled treatment groups
Description: For the pooled data, three treatment groups are formed by combining treatment arms regardless of the atorvastatin doses as follows:
(2) EZE treatment group: pooling EZE+atorva 20 mg arm and EZE+atorva 40 mg arm;

[4] = of the five ADA positive patients
[5] = Safety Population, pooled treatment groups

In the case of “mAb316P: human anti-PCSK9 antibody; heavy chain SEQ ID NO:5, light chain SEQ ID NO:9”, the “2 consecutive calculated LDL-C measurements below 25 mg/dL” value [1] is reported as 13 (12.6%) patients (%), the “General Allergic TEAEs” value [1] is reported as 11 (10.7%) patients (%) and the “SOC General disorders and administration site conditions” value [1] is reported as 15 (14.6%) patients (%). The “SOC Immune system disorders” value [1] was 1 (1.0%) patients (%), the “SOC Psychiatric disorders” value [1] was 5 (4.9%) patients (%) and the “SOC Respiratory, thoracic and mediastinal disorders” value [1] was 7 (6.8%) patients (%). For the same substance, the “SOC Skin and subcutaneous tissue disorders” value [1] was 8 (7.8%) patients (%), the TEAE accidental overdose [1] was 3 patients and the TEAE arthralgia [1] was 4 patients. It also gave a TEAE constipation [1] of 2 patients, a TEAE diarrhea [1] of 2 patients and a TEAE dizziness [1] of 3 patients. The TEAE fatigue [1] was 3 patients, the TEAE hypokalaemia [1] was 2 patients and the TEAE laceration [1] was 3 patients. The TEAE local swelling [1] was 2 patients, the TEAE myalgia [1] was 4 patients and the TEAE nasopharyngitis [1] was 4 patients. The TEAE nausea [1] was 3 patients, the “TEAE pain in extremity” value [1] was 2 patients and the TEAE sciatica [1] was 2 patients. For the same substance, the TEAEs [1] was 58 (56.3%) patients (%), the “Treatment-emergent SAEs” value [1] was 6 (5.8%) patients (%) and the “Treatment-emergent cardiovascular events adjudicated positively” value [1] was “Zero”. The Treatment-emergent neurocognitive disorders [1] was 1 (1.0%) patients (%), the Treatment-emergent neurologic disorders [1] was 2 (1.9%) patients (%) and the “discontinued study treatment early due to a treatment emergent adverse event” value [1] was 5 (4.9%) patients (%). The tolerability [1] was “well tolerated”, the “Treatment-emergent ADA positive responses” value ([2]; 5 of 99 patients in the pooled mAb316P add-on group) was 5.1% and the overall immunogenicity ([2]; in vivo) was “immunogenicity was low”. For the same substance, the “positive mAb316P-neutralizing antibody status” value ([2]; of patients with positive ADA status) was “One and one”, the “treatment-emergent ADA: persistent responses” value [2, 4] was “three” and the “treatment-emergent ADA: transient response” value [2, 4] was “one”. For the same substance, the “General Allergic TEAEs (SMQ Hypersensitivity)” value [3, 5] was 2 (1.9%) patients (%), the “SOC Injury, poisoning and procedural complications” value [3, 5] was 15 (14.4%) patients (%) and the “SOC Musculoskeletal and connective tissue disorders” value [3, 5] was 24 (23.1%) patients (%). The “SOC Neoplasms benign, malignant and unspecified (incl cysts and polyps)” value [3, 5] was 3 (2.9%) patients (%), the “SOC Nervous system disorders” value [3, 5] was 10 (9.6%) patients (%) and the TEAEs [3, 5] was 68 (65.4%) patients (%). For the same substance, the “Treatment-emergent SAEs” value [3, 5] was 4 (3.8%) patients (%), the “Treatment-emergent injection site reactions (ISRs)” value [3, 5] was 3 (2.9%) patients (%) and the Treatment-emergent neurologic disorders [3, 5] was 3 (2.9%) patients (%). For the same substance, the “discontinued study treatment early due to a treatment emergent adverse event (TEAE)” value [3, 5] was 7 (6.7%) patients (%), the “Treatment-emergent cardiovascular events adjudicated positively” value ([3]; Safety Population, pooled treatment groups, ischemia driven coronary revascularization procedure) was 2 (1.9%) patients (%) and the “TEAE Back pain” value ([3]; pooled mAb316P group) was 7 patients. For the same substance, the “TEAE Headache” value ([3]; pooled mAb316P group) was 4 patients, the “TEAE Hypertension” value ([3]; pooled mAb316P group) was 5 patients and the “TEAE Muscle spasms” value ([3]; pooled mAb316P group) was 4 patients. For the same substance, the “TEAE influenza” value ([3]; pooled mAb316P group) was 3 patients, the “TEAE nasopharyngitis” value ([3]; pooled mAb316P group) was 5 patients and the “TEAE upper respiratory tract infection” value ([3]; pooled mAb316P group) was 5 patients. The “TEAE urinary tract infection” value ([3]; pooled mAb316P group) was 3 patients.
